In patent publication US20240168030A1, “DIRECT FLUORESCENT GLYCAN LABELING” (BIO-TECHNE CORPORATION, priority 2019, published 2024):

Experiments:
Type in all cases: biochemical
ST6Gal1 = target: T1, ST6Gal1 (Homo sapiens, UniProt P15907); assay: DFGL with fluorophore-conjugated sialic acid by ST6Gal1; conditions: for Lower limit of detection of acceptor protein labeled by ST6Gal1: 0.2 nmol CMP-Cy5-SA, fluorescent imaging of SDS-PAGE
T1 construct: purchased R&D Systems (Bio-Techne, Minneapolis, MN)
T1 sequence (P15907 1-406): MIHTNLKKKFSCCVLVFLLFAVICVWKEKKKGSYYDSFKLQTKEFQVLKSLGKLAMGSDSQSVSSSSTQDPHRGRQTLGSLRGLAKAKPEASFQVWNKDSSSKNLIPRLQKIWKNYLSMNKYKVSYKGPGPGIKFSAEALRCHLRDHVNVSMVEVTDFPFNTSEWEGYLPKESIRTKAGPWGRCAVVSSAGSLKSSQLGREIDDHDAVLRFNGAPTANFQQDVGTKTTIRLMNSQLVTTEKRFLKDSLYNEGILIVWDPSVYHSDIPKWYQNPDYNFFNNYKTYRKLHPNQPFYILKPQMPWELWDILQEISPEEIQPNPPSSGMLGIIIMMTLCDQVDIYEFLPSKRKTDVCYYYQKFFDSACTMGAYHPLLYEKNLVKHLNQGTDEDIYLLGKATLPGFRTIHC

ST3Gal1 = target: T2, ST3Gal1 (Homo sapiens, UniProt Q11201); assay: Direct fluorescent glycan labeling (DFGL) with fluorophore-conjugated sialic acid by ST3Gal1; conditions: for Lower limit of detection of acceptor protein labeled by ST3Gal1: 0.2 nmol CMP-Cy5-SA, fluorescent imaging of SDS-PAGE
T2 construct: purchased R&D Systems (Bio-Techne, Minneapolis, MN)
T2 sequence (Q11201 1-340): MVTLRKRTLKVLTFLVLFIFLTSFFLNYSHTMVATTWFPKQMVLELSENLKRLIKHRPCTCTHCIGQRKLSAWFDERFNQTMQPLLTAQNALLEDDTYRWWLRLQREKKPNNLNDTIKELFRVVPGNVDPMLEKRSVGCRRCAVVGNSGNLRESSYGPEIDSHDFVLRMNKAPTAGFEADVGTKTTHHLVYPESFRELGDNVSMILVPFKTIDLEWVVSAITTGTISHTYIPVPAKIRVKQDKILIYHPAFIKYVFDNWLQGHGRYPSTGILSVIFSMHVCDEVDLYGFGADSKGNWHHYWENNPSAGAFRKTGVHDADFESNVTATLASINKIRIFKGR

[1] = system: fetal bovine fetuin and asialofetuin; assay: Labeling of fetuin and asialofetuin by sialyltransferases with CMP-f-SA; conditions: CMP-f-SA donors, FIG. 2
[2] = Enzymatic synthesis of Le^x and sLe^x by glycan gel electrophoresis, substrate G2
Method: FIG. 21A. Schematic view of the enzymatic steps for Le^X and sLe^X synthesis on the antibody glycan G0. The glycan short names follow that of FIG. 10. FIG. 21B Kinetic comparison of galactosylation on G0 by B4GalT1, sialyation on G2 by ST3Gal4 and ST6Gal1, and fucosylation on A2[3] by FUT7. The reaction time for B4GalT1 was 10 minutes. The reaction time for ST3Gal4, FUT7 and ST6Gal1 was 5 hours. In each case, the labeling enzyme was subject to a 3-fold serial dilution starting from 1 μg each of B4GalT1, FUT7 and ST6Gal1, and 3 μg ST3Gal4. FIG. 21C. […] Reaction time for both cases was 20 minutes. […] FIG. 21D. […] Reaction time for both cases was 20 minutes.
For a typical labeling reaction, 1 μg to 5 μg target protein was mixed with 0.2 nmol fluorophore-conjugated GDP-fucose and 0.2 μg of a fucosyltransferase in 30μL 25 mM Tris pH 7.5, 10 mM MnCl2. The mixture was incubated at 37° C. for 30 minutes. […] To release labeled glycans from a glycoprotein, the sample was first denatured by heating at 95° C. for two minutes in the presence of 0.5% SDS and 80 mM β-mercaptoethanol and then renatured with 1% Triton X-100, and finally treated with PNGase F at 10:1 mass ratio at 37° C. for 20 minutes. To release glycans from antibody, a sample was directly treated with Endo S at 10:1 mass ratio at 37° C. for 20 minutes. All samples were separated by sodium dodecyl sulfate—polyacrylamide gel electrophoresis (SDS-PAGE) at […]. For separating labeled glycoproteins and antibodies, 4-20% gradient SDS gel was used. For separating labeled free glycans, 15% or 17% gel was used. After separation, all gels were imaged using a FluorChem M imager (ProteinSimple, Bio-Techne, Minneapolis, MN). For glycoproteins samples, the gel was also imaged with traditional methods such as silver staining or trichloroethanol (TCE) staining.
For sLe^x synthesis, G0 was first converted to G2 by B4GalT1, then converted to A2[3] by ST3Gal4, and finally converted to A2[3]F2 (carrier of sLe^x) by FUT7 (FIG. 21A). During these steps, different amounts of enzymes, and multiple reaction times were applied to reveal the intermediate products.
Intermediate products are signs for the progress of each enzymatic step.

[3] = 0.2 μg enzyme, 30 μL, 37° C., 30 minutes
[4] = 0.2 μg enzyme, 30 μL, 37° C., 30 minutes, listed as AF
[5] = 5 μg asialofetuin, 0.2 μg enzyme, 30 μL, 37° C., 30 minutes
[6] = 5 μg asialofetuin, 0.2 μg enzyme, 30 μL, FIG. 4

Molecule: asialofetuin: desialylated fetal bovine fetuin, model glycoprotein from Sigma-Aldrich [reference compound]
- Lower limit of detection of acceptor protein labeled by ST6Gal1 (ST6Gal1; [3]): 0.37 µg
- Lower limit of detection of acceptor protein labeled by ST6Gal1 (ST6Gal1; [4]): lower than 0.37 μg
- Lower limit of detection of acceptor protein labeled by ST3Gal1 (ST3Gal1; [3]): 0.37 µg
- Lower limit of detection of acceptor protein labeled by ST3Gal1 (ST3Gal1; [4]): lower than 0.37 μg

Molecule: MUC1: recombinant mucin from R&D Systems, contains O-glycans [reference compound]
- Lower limit of detection of acceptor protein labeled by ST3Gal1 (ST3Gal1; [3]): around 0.012 μg

Molecule: cytidine monophosphate activated Cy5-conjugated sialic acid [CMP-Cy5-SA]
- Donor amount at which maximal labeling by ST6Gal1 was achieved (ST6Gal1; [5]): 37.0 pmol
- Donor amount at which visible labeling on asialofetuin by ST6Gal1 was observed (ST6Gal1; [5]): 1.37 pmol
- Donor concentration for maximal labeling of asialofetuin by ST6Gal1 (ST6Gal1; [6]): 1.2 µM
- Donor concentration needed for maximal labeling of asialofetuin by ST6Gal1 (ST6Gal1; FIG. 4): 1.21 µM
- Donor amount at which maximal labeling by ST3Gal1 was achieved (ST3Gal1; [5]): 37.0 pmol
- Donor amount at which visible labeling on asialofetuin by ST3Gal1 was observed (ST3Gal1; [5]): 4.11 pmol
- Donor concentration for maximal labeling of asialofetuin by ST3Gal1 (ST3Gal1; [6]): 1.2 µM
- Donor concentration needed for maximal labeling of asialofetuin by ST3Gal1 (ST3Gal1; FIG. 4): 1.21 µM

B1: α-2,3-sialyltransferase 2 (protein, UniProt Q16842 1-350, looked up)
CMP-N-acetylneuraminate-beta-g …: MKCSLRVWFLSVAFLLVFIMSLLFTYSHHSMATLPYLDSGALDGTHRVKLVPGYAGLQRLSKERLSGKSCACRRCMGDAGASDWFDSHFDGNISPVWTRENMDLPPDVQRWWMMLQPQFKSHNTNEVLEKLFQIVPGENPYRFRDPHQCRRCAVVGNSGNLRGSGYGQDVDGHNFIMRMNQAPTVGFEQDVGSRTTHHFMYPESAKNLPANVSFVLVPFKVLDLLWIASALSTGQIRFTYAPVKSFLRVDKEKVQIYNPAFFKYIHDRWTEHHGRYPSTGMLVLFFALHVCDEVNVYGFGADSRGNWHHYWENNRYAGEFRKTGVHDADFEAHIIDMLAKASKIEVYRGN
notes: recombinant human sialyltransferase, Core-1 O-glycan specific
- Which of fetuin and asialofetuin the sialyltransferase labeled [1]: primarily labeled asialofetuin, but also weakly labeled fetuin

B2: α-2,3-sialyltransferase 4 (protein, UniProt Q11206 1-333, looked up)
CMP-N-acetylneuraminate-beta-g …: MVSKSRWKLLAMLALVLVVMVWYSISREDRYIELFYFPIPEKKEPCLQGEAESKASKLFGNYSRDQPIFLRLEDYFWVKTPSAYELPYGTKGSEDLLLRVLAITSSSIPKNIQSLRCRRCVVVGNGHRLRNSSLGDAINKYDVVIRLNNAPVAGYEGDVGSKTTMRLFYPESAHFDPKVENNPDTLLVLVAFKAMDFHWIETILSDKKRVRKGFWKQPPLIWDVNPKQIRILNPFFMEIAADKLLSLPMQQPRKIKQKPTTGLLAITLALHLCDLVHIAGFGYPDAYNKKQTIHYYEQITLKSMAGSGHNVSQEALAIKRMLEMGAIKNLTSF
notes: recombinant human sialyltransferase, N-glycan specific
- Which of fetuin and asialofetuin the sialyltransferase labeled [1]: only labeled asialofetuin
- Time for the complete conversion of G2 to A2[3] ([2]; FIG. 21B): 5 h
- Activity based on reaction completion ([2]; substrate G2, completed product A2[3]): 0.0084 pmol/min/µg
- Relative activity ([2]; substrate G2, product A2[3], normalized to FUT6 on sLe^x synthesis): 0.06

B3: α-N-acetylgalactosaminide α-2,6-sialyltransferase 4 (protein, UniProt Q9H4F1 1-302, looked up)
Alpha-N-acetyl-neuraminyl-2,3- …: MKAPGRLVLIILCSVVFSAVYILLCCWAGLPLCLATCLDHHFPTGSRPTVPGPLHFSGYSSVPDGKPLVREPCRSCAVVSSSGQMLGSGLGAEIDSAECVFRMNQAPTVGFEADVGQRSTLRVVSHTSVPLLLRNYSHYFQKARDTLYMVWGQGRHMDRVLGGRTYRTLLQLTRMYPGLQVYTFTERMMAYCDQIFQDETGKNRRQSGSFLSTGWFTMILALELCEEIVVYGMVSDSYCREKSHPSVPYHYFEKGRLDECQMYLAHEQAPRSAHRFITEKAVFSRWAKKRPIVFAHPSWRTE
notes: recombinant human sialyltransferase, O-GalNAc specific
- Which of fetuin and asialofetuin the sialyltransferase labeled [1]: only labeled fetuin

B4: α-N-acetylgalactosaminide α-2,6-sialyltransferase 1 (protein, UniProt Q9NSC7 1-600, looked up)
Alpha-N-acetylgalactosaminide …: MRSCLWRCRHLSQGVQWSLLLAVLVFFLFALPSFIKEPQTKPSRHQRTENIKERSLQSLAKPKSQAPTRARRTTIYAEPVPENNALNTQTQPKAHTTGDRGKEANQAPPEEQDKVPHTAQRAAWKSPEKEKTMVNTLSPRGQDAGMASGRTEAQSWKSQDTKTTQGNGGQTRKLTASRTVSEKHQGKAATTAKTLIPKSQHRMLAPTGAVSTRTRQKGVTTAVIPPKEKKPQATPPPAPFQSPTTQRNQRLKAANFKSEPRWDFEEKYSFEIGGLQTTCPDSVKIKASKSLWLQKLFLPNLTLFLDSRHFNQSEWDRLEHFAPPFGFMELNYSLVQKVVTRFPPVPQQQLLLASLPAGSLRCITCAVVGNGGILNNSHMGQEIDSHDYVFRLSGALIKGYEQDVGTRTSFYGFTAFSLTQSLLILGNRGFKNVPLGKDVRYLHFLEGTRDYEWLEALLMNQTVMSKNLFWFRHRPQEAFREALHMDRYLLLHPDFLRYMKNRFLRSKTLDGAHWRIYRPTTGALLLLTALQLCDQVSAYGFITEGHERFSDHYYDTSWKRLIFYINHDFKLEREVWKRLHDEGIIRLYQRPGPGTAKAKN
notes: as for B3
- Which of fetuin and asialofetuin the sialyltransferase labeled [1]: labeled both fetuin and asialofetuin

B5: α-N-acetylgalactosaminide α-2,6-sialyltransferase 2 (protein, UniProt Q9UJ37 1-374, looked up)
Alpha-N-acetylgalactosaminide …: MGLPRGSFFWLLLLLTAACSGLLFALYFSAVQRYPGPAAGARDTTSFEAFFQSKASNSWTGKGQACRHLLHLAIQRHPHFRGLFNLSIPVLLWGDLFTPALWDRLSQHKAPYGWRGLSHQVIASTLSLLNGSESAKLFAPPRDTPPKCIRCAVVGNGGILNGSRQGPNIDAHDYVFRLNGAVIKGFERDVGTKTSFYGFTVNTMKNSLVSYWNLGFTSVPQGQDLQYIFIPSDIRDYVMLRSAILGVPVPEGLDKGDRPHAYFGPEASASKFKLLHPDFISYLTERFLKSKLINTHFGDLYMPSTGALMLLTALHTCDQVSAYGFITSNYWKFSDHYFERKMKPLIFYANHDLSLEAALWRDLHKAGILQLYQR
notes: sialyltransferase, O-GalNAc specific
- Which of fetuin and asialofetuin the sialyltransferase labeled [1]: labeled both fetuin and asialofetuin
